Reference: US20230181729A1 (published 2023)

T1: PRAME (PRAME-004) peptide on HLA-A*02:01 (human)
T1 peptide: SLLQHLIGL

B1: R17P1D7 (TCR, V domains shown)
Valpha: AQTVTQSQPEMSVQEAETVTLSCTYDTSESDYYLFWYKQPPSRQMILVIRQEAYKQQNATENRFSVNFQKAAKSFSLKISDSQLGDAAMYFCAYRWAQGGSEKLVFGKGTKLTVNP
Vbeta: EADIYQTPRYLVIGTGKKITLECSQTMGHDKMYWYQQDPGMELHLIHYSYGVNSTEKGDLSSESTVSRIRTEHFPLTLESARPSHTSQYLCATELWSSGGTGELFFGEGSRLTVL
B2: R16P1E8 (TCR, V domains shown)
Valpha: QKEVEQDPGPLSVPEGAIVSLNCTYSNSAFQYFMWYRQYSRKGPELLMYTYSSGNKEDGRFTAQVDKSSKYISLFIRDSQPSDSATYLCAMSEAAGNKLTFGGGTRVLVKP
Vbeta: EAGVAQSPRYKIIEKRQSVAFWCNPISGHATLYWYQQILGQGPKLLIQFQNNGVVDDSQLPKDRFSAERLKGVDSTLKIQPAKLEDSAVYLCASSYTNQGEAFFGQGTRLTVV
B3: R17P1A9 (TCR, V domains shown)
Valpha: QKEVEQNSGPLSVPEGAIASLNCTYSDRGSQSFFWYRQYSGKSPELIMSIYSNGDKEDGRFTAQLNKASQYVSLLIRDSQPSDSATYLCAVLNQAGTALIFGKGTTLSVSS
Vbeta: DSGVTQTPKHLITATGQRVTLRCSPRSGDLSVYWYQQSLDQGLQFLIQYYNGEERAKGNILERFSAQQFPDLHSELNLSSLELGDSALYFCASSAETGPWLGNEQFFGPGTRLTVL

Target: T1, PRAME (PRAME-004) peptide on HLA-A*02:01
Assay: cytokine release

Binding result, recognises:
B1
B2
B3
